From paper PMC7871196 (Cell reports, 2021)
Where no end group is shown, it is not given here. The star is where a group is joined. Biotin = O=C1N[C@H]2[C@H](CS[C@H]2CCCCC(=O)*)N1

Experiments:
[1] = biological target: 6xHis-tagged WDR5 (24-334) (human, UniProt P61964 24-334); test: AlphaScreen or HTRF
[2] = biological target: recombinant 6xHis-SUMO-WDR5 (22-334) (human, UniProt P61964 22-334); test: pull-down

Row | binding result [1] | binding result [2] | Binder
1 | binds | – | Ac-ARTTSQLYDA-NH2 [Peptide acetyl PDPK1 WT 10-mer: Acetyl - ARTTSQLYDA-amidated]
2 | – | binds | H-ARTTSQLYDAVPIQSSGGYK(Biotin) [Peptide PDPK1 WT: NH2-ARTTSQLYDAVPIQSS-GGY-K(biotin)]
3 | binds | – | Ac-ARTTSQLYDAVPIQS-NH2 [Peptide acetyl PDPK1 WT 15-mer: Acetyl-ARTTSQLYDAVPIQS-amidated]
